Results on one molecule are retold here after patent publication US20230312753A1 (IMMUNORIZON, published 2023).

Assay [1] has as its target T1, NKG2A on NK92 cells (endogenous) (UniProt P26715 1-233, limits assumed).
T1 construct: whole, on cells
As to the kind of experiment: FACS on NK92 cells (FIG. 45C). The procedure:
(§1) Suspension cultured cells was harvested directly, and adherent cell were digested using TrypLE Express Enzyme (cat: 12604-013, supplier Life technologies). Centrifuge at 1000 rpm for 5 min and discard the supernatant. Cells are suspended at a concentration of 2×10⁶/mL in FACS buffer (2% FBS in PBS) and add 100 µL/well of cell suspension to the plate (cat #3799, supplier Corning). Centrifuging the plates at 2000 rpm for 5 min and discard the supernatant. Re-suspend the cells in 100 µL/well of Tribody set antibodies (400 nM start, 4-fold dilution, 8 point including 0 point) and incubate the plate for 60 min at 4° C. Centrifuge the plate at 2000 rpm, 4° C. for 5 min and discard supernatant. Then wash the cells 3 times with 170 µL FACS buffer. Re-suspend the cells at 100 µL/well with secondary antibody (goat anti-human Ig Fab-FITC, Cat # 2085-02, Southern biotech) with 1:400 dilution and incubate the plate for 30 min at 4° C. in dark. Centrifuge the plate at 2000 rpm, 4° C. for 5 min and discard supernatant. […] The fluorescence intensity of the staining was measured using flow cytometer (BD, FACSVerse). The geometric mean fluorescence intensity (GMFI; median fluorescence intensity (MFI)) of set antibodies staining was calculated (BD FACSuite software). Dose-response curves were generated and EC50s for thetrispecific variants binding were calculated using GraphPad Prism software.

In assay [2] the target is T2, human CD3 epsilon on cells (Jurkat T cells, endogenous) (human, UniProt P07766 23-207).
T2 construct: whole, on cells; On cells CD3 epsilon stands in the TCR/CD3 complex; only the epsilon chain is named as target; also called hCD3ε on Jurkat; CD3ε expressing cells
T2 sequence (P07766 23-207): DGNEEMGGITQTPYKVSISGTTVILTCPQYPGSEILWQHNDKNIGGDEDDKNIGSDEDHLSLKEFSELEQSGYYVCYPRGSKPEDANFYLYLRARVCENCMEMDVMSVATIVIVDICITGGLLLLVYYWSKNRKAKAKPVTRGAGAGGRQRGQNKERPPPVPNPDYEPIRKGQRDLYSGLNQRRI
As to the kind of experiment: FACS on Jurkat T cells, endogenous hCD3ε (FIG. 45A). The procedure: as §1, with “buffer.” for “buffer. Re-suspend the cells at 100 µL/well with secondary antibody (goat anti-human Ig Fab-FITC, Cat # 2085-02, Southern biotech) with 1:400 dilution and incubate the plate for 30 min at 4° C. in dark. Centrifuge the plate at 2000 rpm, 4° C. for 5 min and discard supernatant.”
Results: The expressed trispecific constructs were analyzed for their binding to cells expressing endogenous CD3ε, 5T4 and NKG2A/NKG2D.

The next assay addresses T3, NKG2A-CD94-ECD-hFc (human, UniProt P26715 94-233; Q13241 32-179, limits assumed).
T3 construct: extracellular domain; Lot 20200724002, 'provided by CP'; the two-chain layout here is only the reading of the name; also called human NKG2A (recombinant); NKG2A antigen; not shown: human Fc (hFc)
As to the kind of experiment: ELISA on coated NKG2A-CD94-ECD-hFc (FIG. 43C). Here is the method:
(§2) Methods: ELISA binding of Tribody/ProTribody antibody constructs to antigens: Dilute target protein (hCD3epsilon-His (cat # 10977-H08S, supplier Sino Biological); h5T4-His (cat# 19845-H08H, supplier Sino Biological); NKG2A-CD94-ECD-hFc, Lot:20200724002, provided by CP; or NKG2D-ECD-hFc, Lot: 20200413002, provided by CP) into PBS with final concentration of 0.01 µg/mL for hCD3epsilon-His, 0.3 µg/mL for h5T4-His, 1 µg/mL for NKG2A-CD94-ECD-hFc and 0.7 µg/mL for hNKG2D-ECD-hFc respectively and coat 100 µL/well on ELISA plate (cat: 9018, supplier Corning) respectively. Incubate O/N, 4° C. The plates were blocked with 250 µL 1% BSA in PBST for 1 hr at 37° C.Wash 4 times with PBST. All the washes are done using Biotek (Elx 405). All the Tribody set antibodies were diluted to 400 nM and make 4-fold serially dilutions (12 points, including 0 point). Add 100 µL/well diluted antibody constructs solution to plate, incubate for 1 hr at 37° C.Wash 4 times with PBST. Add 100 µL/well anti-human kappa light chain-HRP (1:10000), incubate for 0.5 hr at 37° C. Wash 4 times with PBST. 100 µL/well of TMB substrate was added and incubated at room temperature for 5 min. 100 µL/well of 1N HCl to terminate reaction. Plates were read using ELISA plate reader at 450 nm wavelength (instrunet SpectraMax M5e). Data Analysis was performed using Graphpad prism 5 software by using nonlinear regression (curve fit): log (agonist) vs. response, agonist is antibody concentration (nM) and response is OD value.

The target in assay [3] is T4, NKG2A/CD94 on CHO cells (CHOK1-NKG2A-CD94) (human, UniProt P26715 1-233; Q13241 1-179, limits assumed).
T4 construct: whole, on cells; also called CHO cells over-expressing NKG2A/CD94; CHO cell line over expressing ectopic NKG2A
T4 sequence (P26715 whole entry, chain 1 of 2): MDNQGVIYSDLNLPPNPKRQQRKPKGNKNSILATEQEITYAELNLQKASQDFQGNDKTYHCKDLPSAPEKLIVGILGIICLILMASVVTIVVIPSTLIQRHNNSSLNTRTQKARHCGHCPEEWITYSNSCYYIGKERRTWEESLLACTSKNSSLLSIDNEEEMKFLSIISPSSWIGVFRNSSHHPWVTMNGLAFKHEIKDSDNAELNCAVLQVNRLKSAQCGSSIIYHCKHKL
T4 sequence (Q13241 whole entry, chain 2 of 2): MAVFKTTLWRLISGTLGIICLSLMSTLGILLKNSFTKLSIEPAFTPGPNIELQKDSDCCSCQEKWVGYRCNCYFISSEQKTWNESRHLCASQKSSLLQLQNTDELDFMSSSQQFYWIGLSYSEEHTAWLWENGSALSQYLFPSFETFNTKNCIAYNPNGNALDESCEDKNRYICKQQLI
Put plainly: FACS on CHO cells over-expressing NKG2A/CD94 (FIG. 45E). Here is the method: (§3) Then wash the cells 3 times with 170 µL FACS buffer. Re-suspend the cells at 100 µL/well with secondary antibody (goat anti-human Ig Fab-FITC, Cat # 2085-02, Southern biotech) with 1:400 dilution and incubate the plate for 30 min at 4° C. in dark. Centrifuge the plate at 2000 rpm, 4° C. for 5 min and discard supernatant. Then wash the cells 3 times with FACS buffer and analyze the sample with FACS verse. The fluorescence intensity of the staining was measured using flow cytometer (BD, FACSVerse). The geometric mean fluorescence intensity (GMFI; median fluorescence intensity (MFI)) of set antibodies staining was calculated (BD FACSuite software). Dose-response curves were generated and EC50s for thetrispecific variants binding were calculated using GraphPad Prism software.
(§4) Results: The expressed trispecific constructs were analyzed for their binding to cells expressing endogenous CD3ε, 5T4 and NKG2A/NKG2D. […] (FIG. 45F).

The target in assay [4] is T5, h5T4-His (recombinant human 5T4) (human, UniProt Q13641 32-355, limits assumed).
T5 construct: Bought protein; also called recombinant 5T4
T5 sequence (looked up): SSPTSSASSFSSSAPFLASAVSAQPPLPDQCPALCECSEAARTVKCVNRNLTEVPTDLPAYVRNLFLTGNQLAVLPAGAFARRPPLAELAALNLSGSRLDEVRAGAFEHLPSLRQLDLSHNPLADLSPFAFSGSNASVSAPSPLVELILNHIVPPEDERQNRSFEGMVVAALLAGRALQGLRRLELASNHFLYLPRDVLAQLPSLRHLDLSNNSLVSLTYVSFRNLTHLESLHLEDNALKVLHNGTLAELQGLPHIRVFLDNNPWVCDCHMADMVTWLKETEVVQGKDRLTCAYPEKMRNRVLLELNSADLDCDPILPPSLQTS
As to the kind of experiment: ELISA on coated h5T4-His (FIG. 43B). Here is the method:
as §2

The target of assay [5] is T6, 5T4 on cells (NCI-H226 endogenous; CHO over-expressing 5T4) (UniProt Q13641 32-420, limits assumed).
T6 construct: whole, on cells
T6 sequence (looked up): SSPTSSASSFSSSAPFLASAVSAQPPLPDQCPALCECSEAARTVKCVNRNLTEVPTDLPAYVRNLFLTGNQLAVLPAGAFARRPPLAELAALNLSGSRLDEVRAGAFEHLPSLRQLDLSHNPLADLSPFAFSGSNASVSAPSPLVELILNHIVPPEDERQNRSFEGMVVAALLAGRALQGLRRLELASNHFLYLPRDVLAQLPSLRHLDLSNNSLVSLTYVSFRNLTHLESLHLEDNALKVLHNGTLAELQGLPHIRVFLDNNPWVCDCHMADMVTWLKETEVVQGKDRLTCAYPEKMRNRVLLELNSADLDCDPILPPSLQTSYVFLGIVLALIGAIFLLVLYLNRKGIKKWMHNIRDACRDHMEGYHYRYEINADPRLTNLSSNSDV
Put plainly: FACS on CHO cells over-expressing ectopic 5T4 (FIG. 45D). Here is the method: as §3, §4

Assay [6] addresses T7, hCD3epsilon-His (recombinant human CD3 epsilon) (human, UniProt P07766 23-126).
T7 construct: Bought protein; also called recombinant hCD3ε protein; human CD3ε
Put plainly: ELISA on coated hCD3epsilon-His (FIG. 43A). Here is the method: as §2, with “Data Analysis was performed using Graphpad prism 5 software by using nonlinear regression (curve fit): log (agonist) vs. response, agonist is antibody concentration (nM) and response is OD value.” left out

T3 sequence (P26715 94-233 limits assumed, chain 1 of 2): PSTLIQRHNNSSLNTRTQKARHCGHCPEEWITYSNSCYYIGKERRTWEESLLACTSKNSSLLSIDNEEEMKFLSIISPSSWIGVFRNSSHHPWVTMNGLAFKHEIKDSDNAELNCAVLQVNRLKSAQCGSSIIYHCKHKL
T3 sequence (Q13241 32-179 limits assumed, chain 2 of 2): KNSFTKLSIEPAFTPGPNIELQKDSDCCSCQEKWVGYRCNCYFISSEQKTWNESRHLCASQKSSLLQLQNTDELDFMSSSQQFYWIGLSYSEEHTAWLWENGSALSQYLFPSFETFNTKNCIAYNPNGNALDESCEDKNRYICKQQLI
T1 sequence (P26715 whole entry): as the sequence (P26715 whole entry, chain 1 of 2) above
T7 sequence (P07766 23-126 limits assumed): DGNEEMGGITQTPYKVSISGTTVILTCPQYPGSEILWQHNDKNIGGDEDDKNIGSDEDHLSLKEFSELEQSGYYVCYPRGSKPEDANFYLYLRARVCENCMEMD

B1: IM-1093 Tribody, NKG2A mutant variant (other)
heavy: GGSGGSEVQLVESGGGLVQPGGSLRLSCAASGFTFNTYAMNWVRQAPGKGLEWVARIRSKYNNYATYYADSVKDRFTISRDDSKNTLYLQMNSLRAEDTAVYYCVRHGNFGNSYVSWFAYWGQGTMVTVSSASTKGPSVFPLAPSSKSTSGGTAALGCLVKDYFPEPVTVSWNSGALTSGVHTFPAVLQSSGLYSLSSVVTVPSSSLGTQTYICNVNHKPSNTKVDKRVEPKSCPPCGGGGSDIQMTQSPSSLSASVGDRVTITCRASENIYSALAWYQQKPGKAPKLLIYNAKTLAEGVPSRFSGSGSGTDFTLTISSLQPEDFATYYCQHHAGTPRTFGGGTKVEIKGGGGSGGGGSGGGGSGGGGSQVQLVQSGAEVKKPGASVKVSCKASGYTFTSYWMNWVRQAPGQGLEWMGRIDPYDSETHYAQKLQGRVTMTTDTSTSTAYMELRSLRSDDTAVYYCARGGYDFDVDTLYWFFDVWGQGTTVTVSS
light: GGSGGSQAVVTQEPSLTVSPGGTVTLTCRSSTGAVTTSNYANWVQQKPGQAPRGLIGGTNKRAPGTPARFSGSLLGGKAALTLSGVQPEDEAEYYCALWYSNLWVFGGGTKLTVLGQPKAAPSVTLFPPSSEELQANKATLVCLISDFYPGAVTVAWKADSSPVKAGVETTTPSKQSNNKYAASSYLSLTPEQWKSHRSYSCQVTHEGSTVEKTVAPTECPPCSGGGSDIQMTQSPSSLSASVGDRVTITCRASQGISNYLAWFQQKPGKAPKSLIYRANRLQSGVPSRFSGSGSGTDFTLTISSLQPEDVATYYCLQYDDFPWTFGQGTKLEIKGGGGSGGGGSGGGGSGGGGSQVQLVQSGAEVKKPGASVKVSCKASGYTFTSFWMHWVRQAPGQGLEWMGRIDPNRGGTEYNEKAKSRVTMTADKSTSTAYMELSSLRSEDTAVYYCAGGNPYYPMDYWGQGTTVTVSS
notes: also called NKG2A mutated Tribody
With B1, the binding result (in assay [1]; with NKG2A-CD94-ECD-hFc; in assay [3]) was “no binding (tested: dilution series from 400 nM)” each time. For the same molecule, the EC50 came out at 1.3 nM in assay [2], 12 nM in assay [4], 1.3 nM in assay [5] and 1.84 nM in assay [6].
